Assay: yeast display, Sf9 membrane polyspecificity reagent, FACS + sequencing; frameworks hold sequencing errors
Outline: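 A synthetic nanobody library was expressed on Saccharomyces cerevisiae BJ5465 by galactose induction for 36–48 hours. The library was stained for 1 hour at 4 °C with 10% biotinylated, detergent-solubilized Sf9 membrane reagent and enriched with streptavidin microbeads before FACS. Low and high (top ~1%) gates were set on anti-HA fluorescence for expression and streptavidin fluorescence for reagent binding, and each polyreactivity label reflects the gate of origin.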

Row | Sequence | polyreactivity (PSR sort gate)
1 | QVQLVESGGGLVQAGGSLRLSCAASGTIFGYYAMGWDREAPGKERELVAAITVSGSRTYYADSVKGRFTISRDKAKNTVYLQMNCLKPEATAVYYCAARYVSRYWAGRYPTRQRDSWGQGTQVTVSS | high polyreactivity
2 | QVQLVESGGGLVQAGGSLRLSCAASGTIFGYYAMGWYRQAPGKERELVAAITSDGDTYYADSVKGRFTISRDNAKNTVYLQMNSLIPEDTAVYYCNATYGGPYYIQYDYWGQGTQVTVSS | low polyreactivity
3 | QVQLVESGGGLVQAGGSLRLSCAASGTIFLVYAMGWYRQAPGKERELVAAITFSGGDTYADSVKGRFTISRDNAKNTVYLQMNSLKPEDTAVYYCNAPWPFYGSVVGQDFDYWGQGTQVTVSS | low polyreactivity
4 | QVQLVESGGGLVQAGGSLRLSCAASGTIFNEYAMGWYRQAPGKERELVAAISTSGDITYYADSVKGRFTISRDNAKNTVYLQMNSLKPEDTAVYYCAAKYSLLRQYNRLDYWGQGTQVTVSS | low polyreactivity
5 | QVQLVESGGGLVQAGGSLRLSCAASGTIFPTYAMGWYRQAPGKERELVAAISSIVGGTYYAHSVKGRFTISRDNAKNTVYLQMNSLKPEVTAVYYCAAPEDKYQHCIYGAYGVDYWGQGTQVTVSS | low polyreactivity
6 | QVQLVESGGGLVQAGGSLRLSCAASGTIFVGYAMGWYRQAPGKERELVAAISWSGGRTYYADSVKGRFTISRDNAKNTVYLQMNSLKPEDTAVYYCAAPRYGGWRSYQKYDYWGQGTQVTVSS | high polyreactivity
7 | QVQLVESGGGLVQAGGSLRLSCAASGTIFVNNAMGWYRQAPGKERELVAAIRRSGGNTYYADSVKGRFTISRDNAKNTVYLQMNSLKPEDTAVYYCNVVRRADSIRAKSRDYWGQGTQVTVSS | high polyreactivity
8 | QVQLVESGGGLVQAGGSLRLSCAASGTILSFNAMAWYRQAPGKERELVAAMSRGGSTNYADSVKGRFTISRDNEKNTVYLQMNCLIPEDTAVYYCAALRPYGKEDVSDGGMDYWGQGTQVTVSS | high polyreactivity
9 | QVQLVESGGGLVQAGGSLRLSCAASGTIYDGYAMGWYRQAPGKERELVAAINTSGGTTYYADSENGRFTISRDKAKNNGYLQMNSLKPEETAVYYCNAHNHLPPYDYWGQGSQVTVSS | low polyreactivity
10 | QVQLVESGGGLVQAGGSLRLSCAASGTMGWYRQAPGKERELVAANSSSDRTSYADSVKGRFTISRDNAKNTVYLQMNSLKPEDTAVYYCNASTVFAWRTSTLKLFYTAHDYWGQGTQVTVSS | low polyreactivity
11 | QVQLVESGGGLVQAGGSLRLSCAASGTTFAGYAMGWYRPEPGKERELVSAISSGDSTNYADSVKGRFTISRDNAKNTVYLQMNSLKPEDTAVYYCNAEYRTRVFWWAASSYDYWGQGTQVTVSS | low polyreactivity
12 | QVQLVESGGGLVQAGGSLRLSCAASGTTFGAYAMGWYRQARGKERELVAVITWNDGSTYYADSVKGRFTISRDNAKNTVYLHMNSLKPEDTAVYYCAAEYAVSWSAFDWNYYYWGQGTQVTVSS | high polyreactivity
13 | QVQLVESGGGLVQAGGSLRLSCAASGTTFGYYAMGSYRQPPGKDREFVAAISSSGGSTYYPDSVKGRFTISRDNAKNTVYLQMNSLKPEDTAVYYCARVGFPGFYWGQGTEVTVSS | high polyreactivity
14 | QVQLVESGGGLVQAGGSLRLSCAASGTTFLINAMGWYRQAPGKERELVATISSGGSTYYADSVKGRFTISRDNAKNNVYLQMNSLKPEDTAVYFCAADPDRTAYDYWGQGTQVTVSS | low polyreactivity
15 | QVQLVESGGGLVQAGGSLRLSCAASGTTFPAYAMGWYRQAPGKERELVAVINLSGSTYYADSVKGRFTISRDNAKNTVYLQMNSLKPEDTAVYYCNARQYDYYRYGYWGQGTQVTVSS | low polyreactivity
16 | QVQLVESGGGLVQAGGSLRLSCAASGTTFRLYAMGWSIQAPGKERELVAAISRSGRTNYADSVKGSFTISRDNAKNTVYLQLNSLKPEDTAVYYCATVPGKCGDYWGQGTQVTVSS | high polyreactivity
17 | QVQLVESGGGLVQAGGSLRLSCAASGTTFVSYSMGWYRQAPGKEREFVATISISGTSTYYADSVKGRFTISRDNAKNTVYLQMISLKPEDTAVYYCAARLRRRGATQFYRYDYWGQGTQVTVSS | high polyreactivity
18 | QVQLVESGGGLVQAGGSLRLSCAASGTTFVYYAMVWYRQAPGKERYLVAAITWNGGSTYYADSVKGRFTISRDNAKNTVYFQMNSLKPEDTAVYYCNAAFRAGAVYGYYWGQGTQVTVSS | high polyreactivity
19 | QVQLVESGGGLVQAGGSLRLSCAASGTTFWRYTMGWYRQAPGKERELVAAISTRGGSTTYADSVKGRFTISRDKAKNNVYLQMNSLKPEDTAVYYCNADGYRGYYGRNKSKYDYWGQGTQVTVSS | high polyreactivity
20 | QVQLVESGGGLVQAGGSLRLSCAASGTTFYSNAMGWYRQAPGKEREFVAAISYSGGSTYYADSVKGRFTISRDNAKYTVYLQMNSLKPEDTAVYYCNARNWYYDGDYWVQGTQVTVSS | high polyreactivity
21 | QVQLVESGGGLVQAGGSLRLSCAASGTTIKYYAMGWSRQAPGKERELVARITSDGGSTFYADSVKGRFTISRDNAKNTVYLQMNSLKPEDTAVYYCNTAYAFRHWWFYPMDYWGQGTQVTVSS | high polyreactivity
22 | QVQLVESGGGLVQAGGSLRLSCAASGTTLGYYTMGWYRQAPGKERELVAAIDWSGGSTYYADSVKGRFTISRDNAKNTVYLQMNSLKPEDTAVYYCNAEPWDPFYSPGRGGMDYWGQGTQVNVSS | low polyreactivity

Row | Sequence | polyreactivity (PSR sort gate)
23 | QVQLVESGGGLVQAGGSLRLSCAASGVIFESNAMAWYRQAPGKERELVAANTKRGGSTYYADSVKGRFTISRDNAKNTVYLQMKSLKPEDTAVYYCNALGYWRRVVDGFDNWGQGTQVTVSS | high polyreactivity
24 | QVQLVESGGGLVQAGGSLRLSCAASGVIFKAYAMGWYRPAPGKERELVAAITSSGGRTYYADSVKGRFTISRDNAKNTVYLQMNSLKPEDSAVYYCNARGVLRTSLYRYDYWGQGTQLTVSS | high polyreactivity
25 | QVQLVESGGGLVQAGGSLRLSCAASGVIFRRYAMGWYREAPGKERELVAAMSSSGGRTTYADSVNGRFTISRDNAKNTVYIQMNSLKPEDTAVYYCNADLWPGNHDGYWGQGTQVTVSS | low polyreactivity
26 | QVQLVESGGGLVQAGGSLRLSCAASGVTFGGYAMGWYRQAPGKERELVAAISGSGGRTYYADSVKVRFTISRDNAMNTVYLQMNSLKPEDTAVYYCAADRASPYLENYWGQGTQVTVSS | low polyreactivity
27 | QVQLVESGGGLVQAGGSLRLSCAASGYFDRNAMGWDRQAPGKERELVAAITVGGSTNYADSVKGRFTISRDNAKNSVYVQMNSLKPEDTAVYYCAADRGHTILHGGYWGQGTQVTVSS | low polyreactivity
28 | QVQLVESGGGLVQAGGSLRLSCAASGYIFAGYALGWYRQAPGKERELVARISRRGGITYYADSVKGRFTISRDNAKNTVYLQMNSLKPEDTAVYYCNGLGQSSSYDYWGQGTQVTVSS | high polyreactivity
29 | QVQLVESGGGLVQAGGSLRLSCAASGYIFAWYAMGWYRQAPGIVRELVAAISRSGGSTYYADSVKGRFTISRDNAKHTDYLQMNSLKPEDTAVYYCNAYSAYDEYDYWGQGTQVTVSS | high polyreactivity
30 | QVQLVESGGGLVQAGGSLRLSCAASGYIFAYTAMGWYRQAPGKEREFVAVITRSDDSTYADSVKGRFTISRDNAKNTVYLQMNSLKPEDTAVYYCAAQPFVIDGGYRGDYWGQGTQVTVSS | low polyreactivity
31 | QVQLVESGGGLVQAGGSLRLSCAASGYIFAYYAMGWYRQEPGKERELVADIRGRGGSTYYADSVKGRFTISRDNAKNTVYLQMNSLKTEDTAVYYCARRSPNPYSIYYYWGQGTQVTVSS | high polyreactivity
32 | QVQLVESGGGLVQAGGSLRLSCAASGYIFDIYAMGWYRQAPGKERELVAVITRSGGGTYYADSVKGRFTISRDNAKKTVYLQMNSLKPEDTAVYYCAAESYVYGGSDYDYWGQGTQVTVSS | low polyreactivity
33 | QVQLVESGGGLVQAGGSLRLSCAASGYIFDRYAMGWSRPAPGKERELVAAISGRGGSTYYADSVKGRFTISLDNAKNTVYLQMNSLKPEDTAVYYCNALVQGKEYYWGQGTQVTVSS | high polyreactivity
34 | QVQLVESGGGLVQAGGSLRLSCAASGYIFDRYAMGWYRPAPGKERELVAAISVGGGTTYYADSVKGRFTISRDNAKNTVYLQMNSLKPEDTAVYYCAARSDSYAPRRGYWGQGTQVTVSS | high polyreactivity
35 | QVQLVESGGGLVQAGGSLRLSCAASGYIFDYYDMGWYRQAPGKERELVAAINGSGGDTYYADSVKGRFTISRDNANNTVYLEMNSLKPEDTAVYYCAADLVYYSGWGYAFNYWGQGTQVNVSS | high polyreactivity
36 | QVQLVESGGGLVQAGGSLRLSCAASGYIFEEYDMGWYRQAPGKERELVAAISASGGSTYYADSVKGRFTISRDNAKNTVYLQMNSLKPEDTAVYYCAADAVREVYGSWDDYWGQGTQVTVSS | low polyreactivity
37 | QVQLVESGGGLVQAGGSLRLSCAASGYIFEIYAMGWYRQAPGKERELVAAISTRGGRTYYADSVKGRFTISRDNAKNTVYLEMKSLKPEDTAVYYCARESSIVPYGYWGQGTQVTVSS | low polyreactivity
38 | QVQLVESGGGLVQAGGSLRLSCAASGYIFGGYAMGWYRQATGKERELVPGISIGVGSTYYADSVKGRFTISRDNAKNTVYLQMNSLKPEDSAVYYCNRVSVGYDYWGQGTQVTVSS | low polyreactivity
39 | QVQLVESGGGLVQAGGSLRLSCAASGYIFGRNAMGWYRQAPGKERELVAVISSRGSRTYYADSVKGRFTISRDNAKNTVYLQMNSLKPEDTAVYYCAVRGVVNFDYWGQGTQVTVSS | high polyreactivity
40 | QVQLVESGGGLVQAGGSLRLSCAASGYIFGSNAMGWYRQAPGKDRELVAGISNNGGSTYYADSVKGRFTISRDKAKNTVYLQMNSLKPEDTAVYYCARDPNDDNSFPYDYWGQGTQVTVSS | low polyreactivity
41 | QVQLVESGGGLVQAGGSLRLSCAASGYIFGSYTMGWYRQAPGKERELVAGISRRGGGTYYADSVKGRFTMSRDNAKNNVYLQMNSLIPEDTAVYYCAAEVITIGLYRYGFWGQGTQVSVSS | high polyreactivity
42 | QVQLVESGGGLVQAGGSLRLSCAASGYIFGSYVMGGYRQAPGKERELVAAITRIGASTYYADSVKGRFTISRDNAKNTVYLQMNSLKPEDTAVYYCATDQGGYYENDYWGQGTQVTVSS | low polyreactivity
43 | QVQLVESGGGLVQAGGSLRLSCAASGYIFGTDAMGRYRQAPGKERELVAAISSTGRTYYADSVKGRFTISRDNAKNTVYLQMNSLKPEDTAVYYCAADVRTPSEGYDYWGQGTQVTVSS | high polyreactivity

— the nanobody polyreactivity screen of Harvey et al. (2022)
